# Measurements from the nanobody polyreactivity screen of Harvey et al. (2022).
# Assay: yeast display, Sf9 membrane polyspecificity reagent, FACS + sequencing; frameworks hold sequencing errors
# Method in brief: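 Synthetic nanobody libraries on Saccharomyces cerevisiae BJ5465 were galactose-induced for 36–48 hours, stained 1 hour at 4 °C with 10% biotinylated, detergent-solubilized Sf9 membrane reagent and enriched on streptavidin microbeads. FACS then separated cells into low and high (top ~1%) gates by anti-HA (expression) and streptavidin (reagent binding) fluorescence. Genes were colony-PCR amplified, MiSeq 2 × 250 sequenced and CDR-length filtered. A clone's polyreactivity label is that of its gate of origin.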
row,Sequence,polyreactivity (PSR sort gate)
1,QVQLVESGGGLVQAGGSLRISWAASGSTFGYYAMGWYRQAPGKDREWVAAISLGGGSTYYADSVKGRFTISRDNAKNTVYLQMNSLKPDDTAVYYCAARPYVRVKWKFNYWGQGTQVTVSS,low polyreactivity
2,QVQLVESGGGLVQAGGSLRITCAASGSIFTGNAMGWYRQAPGKERELVAAISSSGGSTYYADSVKGRFTLSRDNAKNTVYLQMNSMKPEDTAVYYCAAYNNFLQYDYWGQGTQVTVSS,low polyreactivity
3,QVQLVESGGGLVQAGGSLRITCAASGSTYYHNVMGRYRPAPGKERELVARISSGGGSTSYADSVKGRFTISRDNAKNTVYLQMNSLKPEETAVYYCNKYYTKRGYFLPWYHYGSWGQGTQVTLSS,high polyreactivity
4,QVQLVESGGGLVQAGGSLRLAVLPPELTSTLNDMGWYRQAPGKERELVAAITRGGSTNYADSVKGRFTISRDNAKYTFYLQMNSMKPEDSAVYYCAAPYAGLRDGGDYWGQGTQVTVSS,low polyreactivity
5,QVQLVESGGGLVQAGGSLRLCCAASGITFNYYTMGWYRQAAGNERELVAAIRSGGRTYYADSVKGRFTISRDNAKNTVYLQMNSLKPEDTAVYYGAALAVTYPYDYWGQGTQVTVSS,high polyreactivity
6,QVQLVESGGGLVQAGGSLRLCCAASGSTFGYYAMGWYRQAPGKDRELVAVITWNGGGTYYADSVKGRFTISRDNAKNTVYLQMNSLKPEDTAVYDCAADASLYTDEYDYWGQGTQVTVSS,low polyreactivity
7,QVQLVESGGGLVQAGGSLRLCCAASGSTFYYYAMGWYRQAPGKVRELVASITTGGGSTYYADSVKGRFTISRDNAKNTVYLQMNSLKPEDTAVSYCAAALAYYYWWYDYWGQGTQVTASS,low polyreactivity
8,QVQLVESGGGLVQAGGSLRLCCAATGSIFPGNAMGWYRQAPGKEMELVATNTWSGGSTYYADSVKGRFTISRDNAKNTVYFQMKSLKPVDTAVYYCKADSSWFYQWKDYGMYDYWGQGTQVTVSS,low polyreactivity
9,QVQLVESGGGLVQAGGSLRLICAAAGFIFKRYAMGWYRQAPGKERELVAAITSNGGRTYYADSVKGRFTISRDNAKNTVYFQMNSLKPEDTEVYYCARVSQYYEQDDYWGQGTQVTVSS,high polyreactivity
10,QVQLVESGGGLVQAGGSLRLICAASASIFQPYAMGWYRQAPGKERELVAAISKSGGNTYYADSVKGRFSSSRDYAKNTVYLQMNRLKPEVSAVYYCAALDYWGQGTQVTLSS,low polyreactivity
11,QVQLVESGGGLVQAGGSLRLICAASGFAFSYYAMGWYRQAPGKEREFVASIDWSGGSTYYADSVKGRFTISRDNEKNTVYLQMNSLKPEDTAVYYCAAELDYFPGYDYWGQGTQVTVSS,low polyreactivity
12,QVQLVESGGGLVQAGGSLRLICAASGFIFASNAMGWYRQAPGTERELVASITRGGTTKYADSVKGRFTISRDNAKNTVYLQMNSLKPEDTAVYYCAKRYVRFPWRMDYWGQGTQVTVSS,high polyreactivity
13,QVQLVESGGGLVQAGGSLRLICAASGFIFDAYAMGWYRQAPGKERELVAAISRTGGSTYYADSVKGRFTISRDNAKNTVYLQMNSLKPEDTAVYYCTAYKSHDDYYWGQGTQITVSS,high polyreactivity
14,QVQLVESGGGLVQAGGSLRLICAASGFIFDPYAMGSYRQATGKVRELVAAISSGGSTYYADSVKGRFTISRDNAKNTVYLQMNSLKPEDNAVYYCAKVYVRYDSSTQTYLNTYGYWGQGTQVTVSS,high polyreactivity
15,QVQLVESGGGLVQAGGSLRLICAASGFIFFINDMGWYRQAPGKEREWVAAISWSGGSTYYADSVKGRFTISRDNEKNNFYIQMNSLKAEETAGYYFKTDVPTAQYDYWGQGTQVTVSS,low polyreactivity
16,QVQLVESGGGLVQAGGSLRLICAASGFIFGHNAMGWYRQAPGKERELVAAITWRGRTYYADSVKGRFTISRDNAKNCVYLQMNSMKPEDTSVFSCNAYVRYGYDYWGQGTQVTVSS,high polyreactivity
17,QVQLVESGGGLVQAGGSLRLICAASGFIFNSNAMGWYRQAPGKERELVAAISGRGGSTYYADSVKGRVTISRDNAKNTVYLQMNSLKPEDTAVYYCAAKLRPRYYVSGYDYWGQGTQVTVSS,high polyreactivity
18,QVQLVESGGGLVQAGGSLRLICAASGFIFPHNTMGWYRQAPGKERELVAAISSGGSTNYADSVKGRFTLSRDNAKNTVYLQMNSLKPEDTAVYYCATVSVRWPSNDHVRYDYWGQGTQVTVSS,low polyreactivity
19,QVQLVESGGGLVQAGGSLRLICAASGFIFRTNAMGWYRQAPGKQRELVAAISRSGNTYYADSVKGRFTISRDNAKNTVYLQMNSLKPEDTAVYYCAAQSVRWYSTFKYYYWGQGTQVTVSS,high polyreactivity
20,QVQLVESGGGLVQAGGSLRLICAASGFIFTSYTMGWYRQAPGKERELVAAISRSGGRTYYADSVKGRFTISRDNAKNTVYLQMNRLKPVDTAVYYCNAGYPASYYYYGFDYWGQGTQVTVSS,high polyreactivity
21,QVQLVESGGGLVQAGGSLRLICAASGFIFWRYAMGWYRQAPGKERELVAAISRTSTSTYYADSVKGRFTISRDNAKNSVYLQMNSLKPEDTAVYYCAATFSTFYGYGYWGQGSQVTVSS,high polyreactivity
22,QVQLVESGGGLVQAGGSLRLICAASGFIFWSNAMGWYRQAPGKEMELVAAITWNGGDTYYADSVKGRFTISRDNAKNTVYLQMNSLKPEDTAVYYCAAVHSRRARYDYWGQGTQVTVSS,low polyreactivity

row,Sequence,polyreactivity (PSR sort gate)
1,QVQLVESGGGLVQAGGSLRLICAASGFILNSYAMGWYRQAPGKERELVAAITRSGGNTFYADSVKGRFKISRDNAKNTVYLQLNSLKPDDTAVYYCNAYFTYWSQLYYWGQGTQVTVSS,high polyreactivity
2,QVQLVESGGGLVQAGGSLRLICAASGFIMRPYTMGWYRQAPGKERELVAAITSGGRTYYADSVKGRFTISRDNAKNTVYLQMNSLKPEDTAVYYCAALTYYRTVRTFSYPYDYWGQGTQVTVSS,high polyreactivity
3,QVQLVESGGGLVQAGGSLRLICAASGFTFGYYPMGWYRQAPGKERELVAAINWSGVNTNYADSVKGRFTISRDNAKNTVYLQMNSVKPEDTAVYYCAADAGYDGYGYWGQGTQVTVSS,low polyreactivity
4,QVQLVESGGGLVQAGGSLRLICAASGFTFNWYAMGWYRQAPGKERELVATISSTGSTYYADSVKGRFTISRDNAKNTVYLQMNSQKPEDTGVYYCAVRRPPYSYYWDFDSWGQGTPVTVSS,high polyreactivity
5,QVQLVESGGGLVQAGGSLRLICAASGFTFRAYAMGWYRQAPGKERELVAAISTVGGSTYYADSVKGRFTISRDNAKNTVYLQMNSLKPEETAVYYCAARRRTGREYGYWGKGTQVTVSS,high polyreactivity
6,QVQLVESGGGLVQAGGSLRLICAASGFTFRGYAMGWYRQAPGKERELVAAIRRGVITNYADSVNGRFTISRDNAKNTVYLQMNSLKPEDTAVYYCAAGNITPYRYYHGYYQSIYDYWGQGTIVTVSS,low polyreactivity
7,QVQLVESGGGLVQAGGSLRLICAASGFTFSWYVMGWYRQAPGKERELVATITNRGGSTYYADSVKGRFTISRDTAKNTVYLQMNSLKPEDTAVYYCAARKKGSRVGYDYCGQGTQVTVSS,high polyreactivity
8,QVQLVESGGGLVQAGGSLRLICAASGFTFSYYAMVWYRQAPGKERELVAVISDRGGITYYADSVKGRFTISRDNAKNTVYLQMNSLKPEDTAVYYCAAQNPRYNYRYYYWGQGTQVTVSS,low polyreactivity
9,QVQLVESGGGLVQAGGSLRLICAASGFTFYLYTMGWYRPAPGKERELVASIRRSGGSTYYADSVKGRFTISRDNAKNTVYLQMNSLKPEDTAVYYCAKRTFLVSGPRSYGWYGVYYWGQGTQVTVSS,high polyreactivity
10,QVQLVESGGGLVQAGGSLRLICAASGFTFYRYAMGWYRQAPGKERELVAAITRSGGSTYYADSVKGRFTISRDNAKNTVYLQMNSLKPEDTAVYYCARTYWITNSKFRDYLGAYGGDYWGQGTQVTVSS,high polyreactivity
11,QVQLVESGGGLVQAGGSLRLICAASGFTFYYYAMGWYRQAPGKEWELVAAISRNGVSTYYADSVKGRFTISRDNAKNTVYLQMNSLKPEDTAVYYCASGYGSLHVNYLGQGTQVTVSS,low polyreactivity
12,QVQLVESGGGLVQAGGSLRLICAASGFTYSWYAMGWYRQAPGKERELVAAISWDGDSTYYADSVKGRFTISRDIAKNSVYLQMISLKPEDTAVYYCAADFSYYWVGYDYWGQGTQVTVSS,high polyreactivity
13,QVQLVESGGGLVQAGGSLRLICAASGGIFNRYAMGWYRQAPGKEREFVASISRRGGSTYYADSVKGRFTISRDNAKNTVYLQMNSLKPDDTAVYFCGAEYNSEYDYWGQGTQVTVSS,high polyreactivity
14,QVQLVESGGGLVQAGGSLRLICAASGGIIYYYAMGWYRQAPGKERELVAGITSAGSTYYADSVKGRFTISRDNAKNTVYLQMNSLKPEDTAVYYCKDAWPGYYWYYDDDYWGQGTQVTVSS,low polyreactivity
15,QVQLVESGGGLVQAGGSLRLICAASGGTFRAYVMGWYTQAPGKERELVAAISRSGTRTYYSDSVKGRFTISRDNAKNTVYFQMNSLKPEDTAVYYCAAAAKSWLFDYWGQGTLVTVSS,high polyreactivity
16,QVQLVESGGGLVQAGGSLRLICAASGIIFPVYDMGWYRQAPGKERELVASITDSGGSTSYADSVKGRFTISRDNAKNTVYLQLNSLKPEDTAVYYCAVTDSDTNYYGYLSYDYWGQGTQVNVSS,low polyreactivity
17,QVQLVESGGGLVQAGGSLRLICAASGITFFRNAMGWYRQAPGKERELVATITKSGGSTYYADSVKGRFTISRDNAKNTVYLQMNSLKPDDTSVYYCSAVRRYPVKYVAYDYWGQGTQVTVSS,low polyreactivity
18,QVQLVESGGGLVQAGGSLRLICAASGITFSYYALGRSRQAPGKERELVAAISVTGGSTYYADSVKGRFTISRDNAKNTVYLQMNSLKPEDTAVYYCAADSYYYDGDYWGQGTQVTVSS,high polyreactivity
19,QVQLVESGGGLVQAGGSLRLICAASGITFVTYAMGWYRQAPGKERELVAAISRSGGRTYYADSVKGRFTISRDNAKNTVYLQMNSLKPEDTSVYYCAAERKNKYDYWGQGTQVTVSS,high polyreactivity
20,QVQLVESGGGLVQAGGSLRLICAASGITFYIYAMGWYRQAPGKERELVATISWSDGRTYYADSVKGRFTISRDNAKNTVYLQMNSLKPEDTAVYYCAADWWYYQFDYEYWGQGTQVTVSS,low polyreactivity
21,QVQLVESGGGLVQAGGSLRLICAASGLTFADYAMGWYRPAPGKERELVAAISRRGGSTYYADSVKGRFTISRDNAKNTVYLQMNSLKPEDTAVYYCAAYAYDVAFKRYKFDYWGQGTEVTVSS,high polyreactivity
